Laboratory results reported in patent US20180037654A1.

How the values were obtained:
[1] = target: human CTLA-4 (Y166G and Y183G) expressed on CHO-K1.hCTLA-4 cells (human) (UniProt P16410); assay: CELISA, blockade of biotinylated hCD86/Fc binding to CHO-K1.hCTLA-4 cells (Example 6)
rhCTLA-4/Fc/6His (human) = assay: BLI (Octet RED96), antibody amine-coupled to biosensor, rhCTLA-4/Fc 2.5-40 nM, 1:1 global fit
[2] = target: human CTLA-4 (Y166G and Y183G) expressed on CHO-K1.hCTLA-4 cells (human) (UniProt P16410); assay: CELISA on CHO-K1.hCTLA-4 cells (Example 6)
[3] = target: Mou-Hum-CTLA-4 (mouse/human chimera); assay: CELISA on CHO-K1 cells transiently transfected with Mou-Hum-CTLA-4, panel Mouse/Human
[4] = target: human CTLA-4 (Y166G and Y183G) expressed on CHO-K1.hCTLA-4 cells (human) (UniProt P16410); assay: CELISA, blockade of biotinylated hCD80/Fc binding to CHO-K1.hCTLA-4 cells (Example 6)
human CTLA-4 (human) = human CTLA-4 (human) (UniProt P16410); assay: CELISA on CHO-K1 cells transiently transfected with human CTLA-4, panel Human
Sequence of human CTLA-4 (human) (P16410 36-223 limits assumed): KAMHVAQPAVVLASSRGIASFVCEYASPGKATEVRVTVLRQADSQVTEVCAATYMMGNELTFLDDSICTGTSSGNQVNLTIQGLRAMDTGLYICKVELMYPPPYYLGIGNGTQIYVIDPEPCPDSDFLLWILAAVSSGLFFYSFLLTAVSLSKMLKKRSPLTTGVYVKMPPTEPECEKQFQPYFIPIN

Sequence of CP-675,206 (antibody) (VH): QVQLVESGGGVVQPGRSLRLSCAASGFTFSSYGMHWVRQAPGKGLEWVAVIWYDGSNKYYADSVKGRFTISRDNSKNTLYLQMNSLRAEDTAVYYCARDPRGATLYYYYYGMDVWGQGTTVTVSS
Sequence of CP-675,206 (antibody) (VL): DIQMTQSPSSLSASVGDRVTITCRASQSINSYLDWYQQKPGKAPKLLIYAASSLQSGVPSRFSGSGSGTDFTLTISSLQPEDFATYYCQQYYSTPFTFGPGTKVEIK
Sequence of human CTLA-4 (Y166G and Y183G) expressed on CHO-K1.hCTLA-4 cells (human) (P16410 36-223 Y201G/Y218G limits assumed): as the sequence (P16410 36-223 limits assumed) above, with Y166G, Y183G counted along it
Sequence of rhCTLA-4/Fc/6His (human) (chain, as listed by the source limits assumed): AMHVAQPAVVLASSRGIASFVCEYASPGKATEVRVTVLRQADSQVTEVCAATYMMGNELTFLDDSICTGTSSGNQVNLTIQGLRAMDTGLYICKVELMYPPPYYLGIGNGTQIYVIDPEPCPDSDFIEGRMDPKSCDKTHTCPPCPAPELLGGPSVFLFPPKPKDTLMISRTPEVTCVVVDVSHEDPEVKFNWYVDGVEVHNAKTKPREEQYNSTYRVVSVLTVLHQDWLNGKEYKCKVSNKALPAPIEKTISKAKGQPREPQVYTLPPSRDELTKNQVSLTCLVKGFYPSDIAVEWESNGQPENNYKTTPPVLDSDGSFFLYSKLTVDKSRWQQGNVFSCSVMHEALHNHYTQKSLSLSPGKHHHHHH
Sequence of Mou-Hum-CTLA-4 (mouse/human chimera) (chain, as listed by the source mutant limits assumed): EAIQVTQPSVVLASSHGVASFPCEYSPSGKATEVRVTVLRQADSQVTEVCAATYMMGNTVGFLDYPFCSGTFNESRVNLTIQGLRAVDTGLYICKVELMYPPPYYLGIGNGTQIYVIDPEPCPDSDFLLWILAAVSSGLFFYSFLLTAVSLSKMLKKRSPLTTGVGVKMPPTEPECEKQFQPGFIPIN

CP-675,206 (antibody)
IC50 [1]: 1.69 nM
Kd (rhCTLA-4/Fc/6His (human)): 3.4 nM
EC50 [2]: 0.037 nM
EC50 (read off the curve) [3]: 0.04 nM
IC50 [4]: 1.75 nM
EC50 (read off the curve) (human CTLA-4 (human)): 0.05 nM
